# Laboratory results: IntAct's records for PubMed 25502805
# Tests used:
# hbaz_human HBZ = hbaz_human HBZ (UniProt P02008)
# vps29_human VPS29 = vps29_human VPS29 (UniProt Q9UBQ0)
substance,measurement,setting,value
"Hemoglobin subunit beta (Homo sapiens), P68871 D100Y",effect of a mutation on the interaction,hbaz_human HBZ,disrupting interaction strength
"Hemoglobin subunit beta (Homo sapiens), P68871 E102Q",effect of a mutation on the interaction,hbaz_human HBZ,disrupting interaction strength
"Hemoglobin subunit beta (Homo sapiens), P68871 E122V",effect of a mutation on the interaction,hbaz_human HBZ,disrupting interaction strength
"Hemoglobin subunit beta (Homo sapiens), P68871 F104L",effect of a mutation on the interaction,hbaz_human HBZ,disrupting interaction strength
"Hemoglobin subunit beta (Homo sapiens), P68871 F123S",effect of a mutation on the interaction,hbaz_human HBZ,disrupting interaction strength
"Hemoglobin subunit beta (Homo sapiens), P68871 H118Y",effect of a mutation on the interaction,hbaz_human HBZ,disrupting interaction strength
"Hemoglobin subunit beta (Homo sapiens), P68871 L115P",effect of a mutation on the interaction,hbaz_human HBZ,disrupting interaction strength
"Hemoglobin subunit beta (Homo sapiens), P68871 N103Y",effect of a mutation on the interaction,hbaz_human HBZ,with no effect
"Hemoglobin subunit beta (Homo sapiens), P68871 P101A",effect of a mutation on the interaction,hbaz_human HBZ,disrupting interaction strength
"Hemoglobin subunit beta (Homo sapiens), P68871 S10C",effect of a mutation on the interaction,hbaz_human HBZ,disrupting interaction strength
"Hemoglobin subunit beta (Homo sapiens), P68871 V114E",effect of a mutation on the interaction,hbaz_human HBZ,disrupting interaction strength
"Hemoglobin subunit beta (Homo sapiens), P68871 V127G",effect of a mutation on the interaction,hbaz_human HBZ,disrupting interaction strength
Vacuolar protein sorting-associated protein 35 (Homo sapiens) (from UniProt Q96QK1) D620N,effect of a mutation on the interaction,vps29_human VPS29,with no effect
Vacuolar protein sorting-associated protein 35 (Homo sapiens) (from UniProt Q96QK1) R524W,effect of a mutation on the interaction,vps29_human VPS29,with no effect
